Legend:
HLA-B08:01 (human) [1] = experiment: competition with 125I probe peptide on purified HLA
HLA-B08:01 (human) [2] = experiment: competition with 125I probe peptide for purified HLA class I; conditions: remark: other sources report otherwise
HLA-B08:01 (human) [3] = experiment: pMHC-I dissociation, 125I-b2m; conditions: remark: other sources report otherwise

IC50 (HLA-B08:01 (human) [1]) [nM] | IC50 (HLA-B08:01 (human) [2]) [nM] | Stability (T1/2 (h)) (HLA-B08:01 (human) [3]) [h] | Binder
0.4 |  |  | SLRRKYLRV
 | 1 | 0 | MNWRPILTI
 | 20 |  | NQRPILTII
 |  | 0 | LPRKPTRAA
 | 80 |  | CMGSMNRRPI
 |  | 0 | MALNSEALSV
 |  | 0 | GMNWRPILTI
